The values below come from US20240287172A1 (SCIRHOM, published 2024).

For one experiment, the target named is T1, miR2-FL-WT-T7 (mouse, UniProt Q80WQ6 1-827).
T1 construct: on MEF-DKO cells
T1 sequence: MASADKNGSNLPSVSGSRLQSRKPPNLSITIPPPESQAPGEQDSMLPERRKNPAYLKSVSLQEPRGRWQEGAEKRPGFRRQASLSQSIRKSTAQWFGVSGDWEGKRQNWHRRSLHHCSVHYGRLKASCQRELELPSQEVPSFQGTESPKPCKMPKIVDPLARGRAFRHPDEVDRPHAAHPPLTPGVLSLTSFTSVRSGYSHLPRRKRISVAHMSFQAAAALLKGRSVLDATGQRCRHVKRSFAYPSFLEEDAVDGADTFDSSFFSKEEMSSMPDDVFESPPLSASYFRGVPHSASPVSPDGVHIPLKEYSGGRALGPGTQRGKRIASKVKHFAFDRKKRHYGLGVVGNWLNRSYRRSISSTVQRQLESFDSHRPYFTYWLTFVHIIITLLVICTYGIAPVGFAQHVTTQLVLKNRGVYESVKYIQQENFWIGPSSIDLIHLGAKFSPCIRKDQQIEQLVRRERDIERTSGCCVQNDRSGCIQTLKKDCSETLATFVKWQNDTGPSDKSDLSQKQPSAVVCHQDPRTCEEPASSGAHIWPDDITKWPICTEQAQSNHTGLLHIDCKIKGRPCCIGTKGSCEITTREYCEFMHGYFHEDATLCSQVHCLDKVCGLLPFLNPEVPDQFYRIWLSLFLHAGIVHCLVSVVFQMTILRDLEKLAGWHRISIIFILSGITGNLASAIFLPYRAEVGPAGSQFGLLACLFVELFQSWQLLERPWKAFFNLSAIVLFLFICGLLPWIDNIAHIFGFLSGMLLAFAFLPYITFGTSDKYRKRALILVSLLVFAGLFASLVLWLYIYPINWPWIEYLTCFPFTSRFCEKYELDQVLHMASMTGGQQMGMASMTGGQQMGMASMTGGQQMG
In words: FACS, MEF-DKO cells, 3 µg/ml. The text has this:
(§1) In brief, immortalized MEF-DKO-hiR2-FL-WT-T7 cells, MEF-DKO-miR2-FL-WT-T7 cells and MEF-DKO-hiR2-FL-R441K-T7, MEF-DKO-hiR2-FL-K443R-T7, MEF-DKO-hiR2-FL-V459I-T7, MEF-DKO-hiR2-FL-G481Q-T7, MEF-DKO-hiR2-FL-L488R-T7, MEF-DKO-hiR2-FL-L493I-T7, MEF-DKO-hiR2-FL-D496T-T7, MEF-DKO-hiR2-FL-H505R-T7, MEF-DKO-hiR2-FL-Q512L-T7, MEF-DKO-hiR2-FL- R513K-T7, MEF-DKO-hiR2-FL-D528N-T7, MEF-DKO-hiR2-FL-P533-T7, MEF-DKO-hiR2-FL-M534S-T7, MEF-DKO-hiR2-FL-G540S-T7, MEF-DKO-hiR2-FL-R543Q-T7, MEF-DKO-hiR2-FL-T544P-T7, MEF-DKO-hiR2-FL-G546A-T7, MEF-DKO-hiR2-FL-A547V-T7, MEF-DKO-hiR2-FL-R582Q-T7, MEF-DKO-hiR2-FL-F588L-T7, MEF-DKO-hiR2-FL-M591I-T7, MEF-DKO-hiR2-FL-E594K-T7, MEF-DKO-hiR2-FL-E626D-T7, MEF-DKO-hiR2-FL-L657I-T7, and MEF-DKO-hiR2-FL-H835Y-T7 cells were harvested with 10 mM EDTA in PBS, washed and resuspended in FACS buffer (PBS, 3% FBS, 0.05% sodium azide), and seeded in Nunc U-bottom 96-well plates (Thermo Fisher Scientific, USA) at approximately 3×10⁵ cells per well.
(§2) To pellet cells and remove supernatants, the plates were centrifuged at 1,500 rpm and 4° C. for 3 minutes. For primary staining, cells were resuspended in 100 μl per well of either FACS buffer alone (controls) or the purified antibodies 3, 5, 16, 22, 34, 42, 43, 44, 48, and 50 of the invention at 3 μg/ml FACS buffer and incubated on ice for 1 hour. Afterwards, plates were centrifuged at 1,500 rpm and 4° C. for 3 minutes and washed twice with 200 μl per well of FACS buffer. For secondary staining, cells were spun down and resuspended in 100 μl per well of PE-conjugated goat anti-mouse IgG F(ab′)2 detection fragment (Dianova, Germany) diluted 1:100 in FACS buffer. Protected from light, the cell suspensions were incubated on ice for 1 hour. Plates were then centrifuged at 1,500 rpm and 4° C. for 3 minutes and washed three times with 200 μl per well of FACS buffer. Finally, cells were resuspended in 150 μl per well of FACS buffer and analyzed using a BD Accuri™ C6 Plus flow cytometer (Becton Dickinson, Germany).

A further experiment has as its target T2, hiR2-FL-G546A-T7 (human, UniProt Q6PJF5 1-856).
T2 sequence: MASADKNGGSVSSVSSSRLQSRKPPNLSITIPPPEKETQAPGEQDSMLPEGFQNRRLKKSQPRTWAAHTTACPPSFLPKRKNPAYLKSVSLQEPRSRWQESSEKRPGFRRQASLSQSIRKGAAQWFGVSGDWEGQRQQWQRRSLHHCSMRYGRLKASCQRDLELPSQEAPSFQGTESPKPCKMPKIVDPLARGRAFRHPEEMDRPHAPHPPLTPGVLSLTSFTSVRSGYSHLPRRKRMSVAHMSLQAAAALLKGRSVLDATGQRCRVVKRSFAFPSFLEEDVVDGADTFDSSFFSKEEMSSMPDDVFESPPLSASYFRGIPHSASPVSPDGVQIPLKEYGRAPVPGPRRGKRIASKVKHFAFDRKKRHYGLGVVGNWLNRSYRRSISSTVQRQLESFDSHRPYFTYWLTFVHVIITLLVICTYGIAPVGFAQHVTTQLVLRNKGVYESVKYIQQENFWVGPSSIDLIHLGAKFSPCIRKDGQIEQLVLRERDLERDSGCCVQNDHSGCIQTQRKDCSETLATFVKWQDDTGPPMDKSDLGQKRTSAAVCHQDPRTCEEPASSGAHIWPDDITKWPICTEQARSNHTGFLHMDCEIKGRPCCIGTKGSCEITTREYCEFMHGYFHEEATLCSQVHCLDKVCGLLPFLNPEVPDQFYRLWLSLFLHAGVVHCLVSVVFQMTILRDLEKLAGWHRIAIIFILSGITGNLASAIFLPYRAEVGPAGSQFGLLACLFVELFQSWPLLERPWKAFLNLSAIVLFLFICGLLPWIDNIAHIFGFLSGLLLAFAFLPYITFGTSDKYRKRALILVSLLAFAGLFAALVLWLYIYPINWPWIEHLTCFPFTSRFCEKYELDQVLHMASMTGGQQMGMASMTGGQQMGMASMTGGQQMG
In words: FACS, MEF-DKO cells, 3 µg/ml.
Description: as §1, §2
For orientation: A flow cytometer gives signals particle by particle.

B1: antibody 48 (antibody, V domains shown)
VH: QVQLQQSGTELVRPGTSVKVSCKASGYAFTNYLIEWVKQRPGQGLEWIGVINPGSGFTKYNEKFKGKATLTADKSSSTVYMHLSSLTSEDSAVYFCARGLYRAMDYWGQGTSVTVSS
VL: DIQMTQSPASQSASLGESVTITCLASQTIATWLAWYQQKPGKSPQLLIYGATTLADGVPSRFSGGGSGTKFSFKISSLQAEDFVSYYCQQLYSTPYTFGGGTKLEIK
notes: mouse IgG, kappa light chain; also called clone #48; purified antibody 48
B1: in the experiment with miR2-FL-WT-T7, the “loss of binding vs wild type” value is not below 60%.

B2: antibody 50 (antibody, V domains shown)
VH: QVQLQQSGAELVRPGASVKVSCKASGYAFSNYLIEWVKQRPGQGLEWIGVINPGSGFTKYNEKFKGKATLTADKSSSTAYMQLSSLTSEDSAVYFCARGLYRAMDYWGQGTSVTVSS
VL: DIQMTQSPASQSASLGESVTITCLASQTIGTWLAWYQQKPGKSPQLLIYAAASLADGVPSRFSGGGSGTKFSFKISSLQAEDFVNYYCQQIYSTPYTFGGGTKLEIK
notes: mouse IgG, kappa light chain; also called clone #50; purified antibody 50
In the case of B2, the “loss of binding vs wild type” value was not below 95% in the experiment with miR2-FL-WT-T7 and not below 30% with hiR2-FL-G546A-T7.

B3: antibody 34 (antibody, V domains shown)
VH: QVTLKESGPGILQPSQTLSLTCSFSGFSLSTFSLGVGWIRQSSGKGLEWLAHIWWDDEKYYNPALKSRLTISKDTSKNQVFLKIANVDAADTATYYCARAYYSKSYYALDYWGQGTSVTVSS
VL: DIQMTQSPSSLSASLGERVSLTCRASQEISGYLSWLQQKPDGTIKRLIYAASTLDSGVPKRFSGSRSGSDYSLAISSLESEDFADYYCLQYANFPFTFGSGTKLEIK
notes: mouse IgG, kappa light chain; also called clone #34; purified antibody 34
As for B3, the “loss of binding vs wild type” value with miR2-FL-WT-T7 is not below 95%; in the experiment with hiR2-FL-G546A-T7, not below 60%.

B4: antibody 16 (antibody, V domains shown)
VH: QVTLKESGPGILQPSQTLSLTCSFSGFSLSTFALGVGWIRQPSGRGLEWLAHIWWDDDKYYNPALKSRLTISKDTSKNHVFLKIANVDTADTATYYCARITTYYYGMDYWGQGTSVTVSS
VL: DIVLSQSPATLSVTPGDSVSLFCRASQSIGNHLHWYQQESHASPRLLIKYASQSISGIPSRFSGSGSGTDFTLSINSVETEDFGMYFCQQSYNWPLTFGAGTKLELK
notes: mouse IgG, kappa light chain; also called clone #16; purified antibody 16
As to B4, in the experiment with miR2-FL-WT-T7, the “loss of binding vs wild type” value is not below 95%.

B5: antibody 3 (antibody, V domains shown)
VH: QVTLKESGPGILQPSQTLSLTCSFSGFSLTTFAMGIGWVRQPSGKGLEWLAHIWWDGEKYNNPVLKSRLTISKDTSKNQVFLRIANVDTPDTATYYCARISSIYYIIDNWGQGTSVTVSS
VL: DIVLTQSPATLSVTPGHSVSLSCRASQSISNNLHWYQKKSHESPRLLIKYVSQSISGIPSRFSGSGSGTDFTLSINSVETEDFGMYFCQQSYNWPLTFGAGTKLELK
notes: mouse IgG, kappa light chain; also called clone #3; purified antibody 3
Take B5: the “loss of binding vs wild type” value is not below 95% with miR2-FL-WT-T7 and not below 30% in the experiment with hiR2-FL-G546A-T7.

B6: antibody 5 (antibody, V domains shown)
VH: QVTLKESGPGILQPSQTLSLTCSFSGFSLSTFGMGVGWIRQPSGKGLEWLAHIWWDDEKYYNSALKSRLTISKATSKNQAFLKIANVDTADTATYYCARISNYGSNYWYFNVWGTGTTVTVSS
VL: QVVLTQSPALMSASPGEKVTMTCSAGSSVSCMYWYQQKPGSSPRVLIYDTSNLASGVPARFTGSGSGTSYSLTISRMEAEDAASYYCQQWNSYPLTFGAGTKLELK
notes: mouse IgG, kappa light chain; also called clone #5; purified antibody 5
In the case of B6, the “loss of binding vs wild type” value with miR2-FL-WT-T7 and with hiR2-FL-G546A-T7 was not below 95% each time.

B7: antibody 42 (antibody, V domains shown)
VH: QVTLKESGPGILQPSQTLSLTCSLSGFSLSTFGRGVGWIRQPSGKGLEWLAHIWWDDEKYYNPALKSRLTISKDTSKNQVFLRIANVDTADTATYYCARIQNYGSNYWYFDVWGTGTTVTVSS
VL: LIVLTQSPAIMSASPGEKVTMTCGATSRISYMFWYQQKPGSSPRVLIYDTSNLASGVPVRFSGSGSGTSYSLTISRVEAEDVATYYCQQWNSYPLTFGAGTKLELK
notes: mouse IgG, kappa light chain; also called clone #42; purified antibody 42
For the molecule B7, the results for the “loss of binding vs wild type” value with miR2-FL-WT-T7 and with hiR2-FL-G546A-T7 were not below 95% and not below 60%, respectively.

B8: antibody 44 (antibody, V domains shown)
VH: QVTLKESGPGILQPSQTLSLTCSFSGFSLSTFGMGVGWIRQPSEKGLEWLAHIWWDDDKYYNPALKSRLTISKDTSKNQIFLKITNVDTAETATYYCSRIGNYGSNYWYFDVWGTGTTVTVSS
VL: QIVLTQSPAVMSASPGEKVTMTCTASSSVYYMYWYQQTPGSSPRLLIYDTSNLASGVPVRFSGSGSGTSYSLTISRMEAEDAATYYCQQWNTYPLTFGAGTKLELK
notes: mouse IgG, kappa light chain; also called clone #44; purified antibody 44
As for B8, the entries for the “loss of binding vs wild type” value with miR2-FL-WT-T7 and in the experiment with hiR2-FL-G546A-T7 were not below 95% and not below 60%, respectively.

B9: antibody 43 (antibody, V domains shown)
VH: QVALKESGPGILQPSQTLSLTCSFSGFSLSTFGMGVGWIRQSSGKGLEWLANIWWDDDKYYNPALKSRLTISKDASKNQAFLKIANVDTADTATYYCARIGNYGSNYWYFDVWGTGTTVTVSS
VL: QIVLTQSPAIMSASPGERVTMTCSANSRISYMYWYQQKPGSSPRLLIYDTSNLASGVPVRFSGSGSGTSYSLTISRMEAEDAATYNCQQWSSYPLTFGAGTKLELK
notes: mouse IgG, kappa light chain; also called clone #43; purified antibody 43
Regarding B9, the “loss of binding vs wild type” value with miR2-FL-WT-T7 was not below 95%; in the experiment with hiR2-FL-G546A-T7, not below 60%.

B10: antibody 22 (antibody, V domains shown)
VH: QVTLKESGPGILQPSQTLSLTCSFSGFSLSTFGMGVGWIRQPSGKGLEWLAHIWWDDEKYYNSALKSRLTISKATSKNQVFLKIANVDTADTATYYCARISNYGSNYWYFNVWGTGTTVTVSS
VL: QVVLTQSPALMSASPGEKVTMTCSAGSSVSYMYWYQQKPGSSPRVLIYDTSNLASGVPARFTGSGSGTSYSLTISRMEAEDAATYYCQQWNSYPLTFGAGTKLELK
notes: mouse IgG, kappa light chain; also called clone #22; purified antibody 22
Take B10: the entries for the “loss of binding vs wild type” value with miR2-FL-WT-T7 and in the experiment with hiR2-FL-G546A-T7 were not below 95% and not below 30%, respectively.
